US12648572B2, “Proteolytically stable U1-agatoxin-Ta1b variant polypeptides for pest control” (Vestaron Corporation, priority 2020, dated 2026)
Several values for one entry are separate records, joined by “and”; a condition that tells them apart may be missing. Identical values can stand only once.

Experiments:
[1] = system: Manduca Gut Extract (MGE); assay: Manduca Gut Extract (MGE) digest of TVPs; type: in vitro ADME, Manduca sexta; details: for Fold Stability Improvement: in the presence of MGE, relative to Ta1b; for Half Life (min) Manduca Gut Extract (MGE): 1 mg/mL TVP, 1/10 diluted MGE, 50 mM Tris-HCl pH 8.8; for Fold Change (MGE): half life relative to WT Ta1b
Description: (§1) To determine the stability of TVPs when exposed to lepidopteran gut proteases. Briefly, 5th instar Manduca sexta were dissected by making a small incision to the intestinal lining such that gut contents could be collected in a tube. Multiple dissections were pooled and kept on ice for immediate use, or stored at −80° C. for future use. The isolated midgut (referred to hereinafter as Manduca Gut Extract, or MGE) was then for digest assays. Next, 1 mg/mL TVP was incubated with 0.1 mg/mL bovine trypsin, or 1/10 diluted MGE with 50 mM Tris-HCl, pH 8.8 to maintain alkaline pH. Time points were taken and the digest quenched with the addition of 200 mM HCl. Degradation was quantified by HPLC analysis and rates were determined by fit to a single exponential decay.
(§2) TVPs were assessed for stability in the presence of MGE (as described above). Activity was assessed by injection into houseflies (Musca domestica): […] intrathoracically into houseflies with an average mass of 18 mg. The dose required for 50% knockdown and mortality was determined at 24 hour post-injection.

[2] = system: houseflies (Musca domestica); assay: Housefly injection assay; type: in vivo; details: for Activity relative to wild-type Ta1b, in words: housefly injection; for Fold Activity Reduction: housefly intrathoracic injection, 24 hour post-injection, relative to wild-type Ta1b; for Fly KD50: dose for 50% knockdown, 24 hours post-injection
Description: as §2
Activity of the TVPs identified in the mutant stability assay were assessed by injection into houseflies (Musca domestica). Wild-type Ta1b and the TVPs with amino acid substitutions at positions R9Q and R9N were injected intrathoracically into houseflies with an average mass of 18 mg, at an injection dose of 0.5 μL of toxin or control. The dose of TVP required for 50% knockdown (KD50) was then determined at 24-hours post-injection. […] FIG. 2.
The TVPs: (1) TVP-R9Q; (2) TVP-R9QΔG; (3) TVP-R9Q/T43A/ΔG; (4) TVP-R9Q/T43A; and (5) TVP-R9Q/T43A/ΔK-G, were analyzed in a housefly injection assay. Housefly injections were performed as previously described herein.

bovine trypsin = biological target: T1, bovine trypsin (Bos taurus, UniProt P00760); assay: Bovine trypsin digest of TVPs; type: in vitro ADME; details: for Half Life (min) Bovine Trypsin: 1 mg/mL TVP, 0.1 mg/mL bovine trypsin, 50 mM Tris-HCl pH 8.8; for Trypsin digestion, in words: alanine scan of basic amino acids; for Fold Change (Trypsin): half life relative to WT Ta1b
T1 sequence (P00760 24-246): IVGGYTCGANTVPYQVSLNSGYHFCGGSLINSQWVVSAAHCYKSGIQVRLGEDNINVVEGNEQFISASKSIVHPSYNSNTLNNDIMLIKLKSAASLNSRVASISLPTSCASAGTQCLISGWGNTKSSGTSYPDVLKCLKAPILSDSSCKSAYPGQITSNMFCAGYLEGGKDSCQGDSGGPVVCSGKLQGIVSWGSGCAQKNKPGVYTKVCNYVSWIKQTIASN
Description: as §1
Lepidopteran gut contains trypsin-like proteases that cut after Arg or Lys amino acids; without wishing to be bound by any particular theory, we hypothesized that singly mutating these amino acids to alanine could identify the site(s) that are causing degradation in lepidopteran gut. To test the foregoing hypothesis, TVPs were created by individually mutating each basic amino acid to alanine present in the wild-type Ta1b amino acid sequence. Next, the stability of each of these TVPs was assessed by confronting the TVPs with the digestion conditions as described above.

[3] = system: neonate corn earworm (Helicoverpa zea); assay: Corn earworm oral foliar bioassay; type: in vivo; details: sprayed lettuce leaf discs, fourth day, ± standard error of the mean
Description: In the oral foliar bioassay, the experimental unit consisted of 12 leaf discs (per peptide concentration) sprayed (front and back) with a total spray volume of 5.5 mL (2.75 mL for each side) on which neonate corn earworm (Helicoverpa zea) were allowed to feed. There were four experimental replicates per peptide.
Romaine lettuce was cut into 30 mm diameter disks, and then sterilized using a 140 ppm bleach solution; the disks were then triple rinsed in water. The romaine lettuce disks were then pinned to a Styrofoam board and sprayed with a given treatment; the disks were flipped, sprayed again, allowed to dry, and placed in the arena.
The arena was 32-well rearing tray containing 5 mL of 1% agar. One romaine lettuce disk was placed in each well, with a single first instar corn earworm (Helicoverpa zea) per leaf disk. The trays were then placed in a 28° C. Incubator.
Mortality of the corn earworms was evaluated on the fourth day after spraying and larvae application to the leaf discs. Larvae were scored as either alive (moving and feeding normally) or dead (immobile, discolored).

[4] = system: Helicoverpa gut extract (HGE); assay: Helicoverpa gut extract (HGE) digest, position 9 scan; type: in vitro ADME, Helicoverpa zea; details: for Half-Life: 30 mM Tris-HCl pH 8.8, time points 0, 3, 22.5 hours
Description: To determine the stability of TVPs when exposed to lepidopteran gut proteases, early fifth instar Helicoverpa zea larvae were dissected to remove the intact digestive tract from other tissues and hemolymph. To obtain the Helicoverpa gut extract (HGE), a small incision was made to the intestinal lining such that gut contents could be collected in a tube. Multiple dissections were pooled and kept on ice for immediate use, or stored at −80° C. for future use.
Wild-type Ta1b (SEQ ID NO: 1) was used as a template, and mutated at amino acid substitution at position 9, (i.e., R9; SEQ ID NO: 1) to produce the TVPs evaluated here; these TVPs have a substitution of the arginine at position 9 (i.e., R9) of the wild-type amino acid sequence (SEQ ID NO: 1), with one of the amino acids F, P, Y, K, W, H, A, G, N, L, D, V, M, I, Q, C, E, T, and S; in addition, a TVP with an R9Q+T43A mutation (relative to wild-type Ta1b) was likewise evaluated (SEQ ID NO: 85).
The TVPs described above and shown in Table 19 were confronted with Helicoverpa gut extract (HGE) to simulate digestion in the lepidopteran gut environment. Here, the TVPs were incubated with 6× diluted amount of HGE obtained from Helicoverpa deep well cell growths. The 6× diluted UGE was supplemented with 30 mM Tris-HCl, pH 8.8, to maintain the alkaline pH of the Helicoverpa gut environment.
Samples of the digested TVPs were collected at time points of 0, 3, and 22.5 hours. To quench the digestion process, 30 mM Glycine, pH 2.0 was added to the samples, and the samples of the digested TVPs were immediately analyzed using reverse-phase HPLC to quantify the TVP peak area.

[5] = system: corn earworm (Helicoverpa zea); assay: Corn earworm injection assay; type: in vivo; details: fourth instar larvae, 24 hours after injection; ± standard error of the mean
Description: First, WT Ta1b (WT) and the R9Q mutant of Ta1b (TVP-R9Q) were evaluated in a lepidopteran injection assay. The experimental unit consisted of 8 injected individual corn earworm (Helicoverpa zea) per peptide dose. There were four experimental replicates per peptide. Prior to injection, corn earworm larvae were reared to their fourth instar on standard lepidoptera diet. The larvae were weighed to determine accurate dose calculations. The exact doses varied slightly between replicates because of variations in corn earworm larvae mass, but the approximate doses injected were: 1000, 2000, 4000, and 8000 pmol/g. Injections were performed using a hand microapplicator and a syringe fitted with a 30 gauge needle. Larvae were injected at the base of one of their most posterior prolegs. Larvae were injected with 1 μL of treatment solution.
After injection, larvae were placed in a well of a 32-well tray filled with 5 mL of standard lepidoptera diet. The trays were then placed in a 28° C. Incubator. The condition of the larvae were evaluated 24 hours after injection.

Substance	Fold Stability Improvement [1] [fold]	Activity relative to wild-type Ta1b, in words [2]	Fold Activity Reduction [2]	Half Life (min) Bovine Trypsin (bovine trypsin) [min]	other results
A8N: TVP with substitution A8N (EPDEICRNRMTNKEFTYKSNVCNNCGDQVAACEAECFRNDVYTACHEAQKG; listed as Eratigena agrestis)	1.8				
A8S: TVP with substitution A8S (EPDEICRSRMTNKEFTYKSNVCNNCGDQVAACEAECFRNDVYTACHEAQKG; listed as Eratigena agrestis)	12.1	maintain activity similar to the native Ta1b	1.3 fold		Digestibility by Manduca Gut Extract (MGE), in words [1]: significant reduction in digestibility
EPDEICRAAMTNKEFTYKSNVCNNCGDQVAACEAECFRNDVYTACHEAQKG (TVP-R9A)	247		9 fold and 8.7 fold	>6000	Trypsin digestion, in words (bovine trypsin): completely abolished trypsin digestion; Fold Change (Trypsin) (bovine trypsin): >20 fold; Half Life (min) Manduca Gut Extract (MGE) [1]: 370 min; Fold Change (MGE) [1]: 247 fold
EPDEICRAEMTNKEFTYKSNVCNNCGDQVAACEAECFRNDVYTACHEAQKG (TVP-R9E)			>10 fold		
EPDEICRAHMTNKEFTYKSNVCNNCGDQVAACEAECFRNDVYTACHEAQKG (TVP-R9H)	16.2		2.5 fold		
EPDEICRANMTNKEFTYKSNVCNNCGDQVAACEAECFRNDVYTACHEAQKG (TVP-R9N)	>50	maintain activity similar to the native Ta1b	1.5 fold		Digestibility by Manduca Gut Extract (MGE), in words [1]: significant reduction in digestibility
EPDEICRARMTNKEFTYKSNVCNNCGDQVAACEAECFRNDVYTACHEAQKG (listed as Eratigena agrestis) [WT Ta1b, reference compound]				288	Fly KD50 [2]: 167 pmol/g; Oral Bioassay % Mortality at 3 ppt [3]: 6 ± 3%; Half-Life ([4]; 6× diluted HGE): 1.9 h; Injection LD50 [5]: 2933 ± 827 pmol/g; Half Life (min) Manduca Gut Extract (MGE) [1]: 1.5 min
EPDEICRATMTNKEFTYKSNVCNNCGDQVAACEAECFRNDVYTACHEAQKG (TVP-R9T) [T (Position 9)]					Result (Stable/Unstable) ([4]; 6× diluted HGE): Stable; Half-Life ([4]; 6× diluted HGE): 95.8 h; Gut extract digestion, in words ([4]; 6× diluted gut extract, relative to wild type Ta1b): completely abolished UGE digestion
K18A: TVP: wild-type Ta1b with basic amino acid K18 mutated to alanine (EPDEICRARMTNKEFTYASNVCNNCGDQVAACEAECFRNDVYTACHEAQKG; listed as Eratigena agrestis)				1194	Trypsin digestion, in words (bovine trypsin): modest, albeit significant reduction in digestibility; Fold Change (Trypsin) (bovine trypsin): 4.1 fold
R38A: TVP: wild-type Ta1b with basic amino acid R38 mutated to alanine (EPDEICRARMTNKEFTYKSNVCNNCGDQVAACEAECFANDVYTACHEAQKG; listed as Eratigena agrestis)	8.6	did not show any reduction in activity	1.0 fold	1860	Trypsin digestion, in words (bovine trypsin): modest, albeit significant reduction in digestibility; Fold Change (Trypsin) (bovine trypsin): 6.5 fold; Half Life (min) Manduca Gut Extract (MGE) [1]: 19 min; Fold Change (MGE) [1]: 8.6 fold
T11P: TVP with substitution T11P (EPDEICRARMPNKEFTYKSNVCNNCGDQVAACEAECFRNDVYTACHEAQKG; listed as Eratigena agrestis)	92.9	maintain activity similar to the native Ta1b	1.4 fold		Digestibility by Manduca Gut Extract (MGE), in words [1]: significant reduction in digestibility
TVP-R9Q/ΔG: TVP-R9Q with the C-terminal glycine removed (EPDEICRAQMTNKEFTYKSNVCNNCGDQVAACEAECFRNDVYTACHEAQK; C-terminal Gly deleted; TVP-R9QdG)					Fly KD50 [2]: 136 pmol/g
